{"source": "the supplement of paper PMC10567573", "parents": {"B1": {"name": "MYBL2 (parent)", "chain": "FPNRTDQQCQYRWLRVLNPDLVKG"}}, "data": [{"variants_of": "B1", "assay": "protein stability index of a GFP-peptide fusion (GPS, HEK-293T) (PSI 1-6); higher = more stable", "conditions": "c terminus: a fixed tail appended", "values": [{"variant": "FPNRTDQQCQYRWDRVLNPDLVKG", "note": "[L14D]", "protein stability index": 2.22}, {"variant": "FPNRTDQQCQYRWYRVLNPDLVKG", "note": "[L14Y]", "protein stability index": 1.83}, {"variant": "FPNRTDQQCQYRWFRVLNPDLVKG", "note": "[L14F]", "protein stability index": 1.51}, {"variant": "FPNRTDQQCQYRWMRVLNPDLVKG", "note": "[L14M]", "protein stability index": 2.12}, {"variant": "FPNRTDQQCQYRWNRVLNPDLVKG", "note": "[L14N]", "protein stability index": 2.46}, {"variant": "FPNRTDQQCQYRWVRVLNPDLVKG", "note": "[L14V]", "protein stability index": 2.21}, {"variant": "FPNRTDQQCQYRWARVLNPDLVKG", "note": "[L14A]", "protein stability index": 3.17}, {"variant": "FPNRTDQQCQYRWWRVLNPDLVKG", "note": "[L14W]", "protein stability index": 1.4}, {"variant": "FPNRTDQQCQYRWPRVLNPDLVKG", "note": "[L14P]", "protein stability index": 2.05}, {"variant": "FPNRTDQQCQYRWCRVLNPDLVKG", "note": "[L14C]", "protein stability index": 2.02}, {"variant": "FPNRTDQQCQYRWERVLNPDLVKG", "note": "[L14E]", "protein stability index": 2.28}, {"variant": "FPNRTDQQCQYRWHRVLNPDLVKG", "note": "[L14H]", "protein stability index": 2.67}, {"variant": "FPNRTDQQCQYRWQRVLNPDLVKG", "note": "[L14Q]", "protein stability index": 2.08}, {"variant": "FPNRTDQQCQYRWTRVLNPDLVKG", "note": "[L14T]", "protein stability index": 1.64}, {"variant": "FPNRTDQQCQYRWSRVLNPDLVKG", "note": "[L14S]", "protein stability index": 2.35}, {"variant": "FPNRTDQQCQYRWIRVLNPDLVKG", "note": "[L14I]", "protein stability index": 2.03}, {"variant": "FPNRTDQQCQYRWRRVLNPDLVKG", "note": "[L14R]", "protein stability index": 2.44}, {"variant": "FPNRTDQQCQYRWGRVLNPDLVKG", "note": "[L14G]", "protein stability index": 1.48}, {"variant": "FPNRTDQQCQYRWLRVLNPKLVKG", "note": "[D20K]", "protein stability index": 2.06}, {"variant": "FPNRTDQQCQYRWLRVLNPFLVKG", "note": "[D20F]", "protein stability index": 1.68}, {"variant": "FPNRTDQQCQYRWLRVLNPRLVKG", "note": "[D20R]", "protein stability index": 2.22}, {"variant": "FPNRTDQQCQYRWLRVLNPNLVKG", "note": "[D20N]", "protein stability index": 2.43}, {"variant": "FPNRTDQQCQYRWLRVLNPELVKG", "note": "[D20E]", "protein stability index": 2.03}, {"variant": "FPNRTDQQCQYRWLRVLNPSLVKG", "note": "[D20S]", "protein stability index": 2.24}, {"variant": "FPNRTDQQCQYRWLRVLNPHLVKG", "note": "[D20H]", "protein stability index": 2.06}, {"variant": "FPNRTDQQCQYRWLRVLNPMLVKG", "note": "[D20M]", "protein stability index": 1.89}, {"variant": "FPNRTDQQCQYRWLRVLNPPLVKG", "note": "[D20P]", "protein stability index": 2.35}, {"variant": "FPNRTDQQCQYRWLRVLNPGLVKG", "note": "[D20G]", "protein stability index": 1.6}, {"variant": "FPNRTDQQCQYRWLRVLNPCLVKG", "note": "[D20C]", "protein stability index": 1.83}, {"variant": "FPNRTDQQCQYRWLRVLNPILVKG", "note": "[D20I]", "protein stability index": 1.74}, {"variant": "FPNRTDQQCQYRWLRVLNPQLVKG", "note": "[D20Q]", "protein stability index": 1.78}, {"variant": "FPNRTDQQCQYRWLRVLNPALVKG", "note": "[D20A]", "protein stability index": 2.13}, {"variant": "FPNRTDQQCQYRWLRVLNPLLVKG", "note": "[D20L]", "protein stability index": 1.7}, {"variant": "FPNRTDQQCQYSWLRVLNPDLVKG", "note": "[R12S]", "protein stability index": 2.25}, {"variant": "FPNRTDQQCQYHWLRVLNPDLVKG", "note": "[R12H]", "protein stability index": 3.76}, {"variant": "FPNRTDQQCQYYWLRVLNPDLVKG", "note": "[R12Y]", "protein stability index": 2.46}, {"variant": "FPNRTDQQCQYFWLRVLNPDLVKG", "note": "[R12F]", "protein stability index": 2.25}, {"variant": "FPNRTDQQCQYWWLRVLNPDLVKG", "note": "[R12W]", "protein stability index": 1.95}, {"variant": "FPNRTDQQCQYGWLRVLNPDLVKG", "note": "[R12G]", "protein stability index": 1.59}, {"variant": "FPNRTDQQCQYDWLRVLNPDLVKG", "note": "[R12D]", "protein stability index": 1.19}, {"variant": "FPNRTDQQCQYPWLRVLNPDLVKG", "note": "[R12P]", "protein stability index": 1.96}, {"variant": "FPNRTDQQCQYCWLRVLNPDLVKG", "note": "[R12C]", "protein stability index": 2.55}, {"variant": "FPNRTDQQCQYQWLRVLNPDLVKG", "note": "[R12Q]", "protein stability index": 2.21}, {"variant": "FPNRTDQQCQYLWLRVLNPDLVKG", "note": "[R12L]", "protein stability index": 1.45}, {"variant": "FPNRTDQQCQYEWLRVLNPDLVKG", "note": "[R12E]", "protein stability index": 1.74}, {"variant": "FPNRTDQQCQYIWLRVLNPDLVKG", "note": "[R12I]", "protein stability index": 1.97}, {"variant": "FPNRTDQQCQYNWLRVLNPDLVKG", "note": "[R12N]", "protein stability index": 1.69}, {"variant": "FPNRTDQQCQYMWLRVLNPDLVKG", "note": "[R12M]", "protein stability index": 1.96}, {"variant": "FPNRTDQQCQYAWLRVLNPDLVKG", "note": "[R12A]", "protein stability index": 2.75}, {"variant": "FPNRTDQQCQYTWLRVLNPDLVKG", "note": "[R12T]", "protein stability index": 1.66}, {"variant": "FPNRTDQQCQYKWLRVLNPDLVKG", "note": "[R12K]", "protein stability index": 2.25}, {"variant": "FPNRTDQQCQYRWLRVLKPDLVKG", "note": "[N18K]", "protein stability index": 1.68}, {"variant": "FPNRTDQQCQYRWLRVLYPDLVKG", "note": "[N18Y]", "protein stability index": 2.16}, {"variant": "FPNRTDQQCQYRWLRVLFPDLVKG", "note": "[N18F]", "protein stability index": 2.73}, {"variant": "FPNRTDQQCQYRWLRVLDPDLVKG", "note": "[N18D]", "protein stability index": 2.09}, {"variant": "FPNRTDQQCQYRWLRVLIPDLVKG", "note": "[N18I]", "protein stability index": 1.09}, {"variant": "FPNRTDQQCQYRWLRVLSPDLVKG", "note": "[N18S]", "protein stability index": 2.17}, {"variant": "FPNRTDQQCQYRWLRVLWPDLVKG", "note": "[N18W]", "protein stability index": 2.05}, {"variant": "FPNRTDQQCQYRWLRVLTPDLVKG", "note": "[N18T]", "protein stability index": 2.19}, {"variant": "FPNRTDQQCQYRWLRVLAPDLVKG", "note": "[N18A]", "protein stability index": 2.17}, {"variant": "FPNRTDQQCQYRWLRVLLPDLVKG", "note": "[N18L]", "protein stability index": 2.74}, {"variant": "FPNRTDQQCQYRWLRVLMPDLVKG", "note": "[N18M]", "protein stability index": 1.75}, {"variant": "FPNRTDQQCQYRWLRVLPPDLVKG", "note": "[N18P]", "protein stability index": 1.98}, {"variant": "FPNRTDQQCQYRWLRVLEPDLVKG", "note": "[N18E]", "protein stability index": 2.16}, {"variant": "FPNRTDQQCQYRWLRVLVPDLVKG", "note": "[N18V]", "protein stability index": 1.61}, {"variant": "FPNRTDQQCQYRWLRVLCPDLVKG", "note": "[N18C]", "protein stability index": 2.8}, {"variant": "FPNRTDQQCQYRWLRVLQPDLVKG", "note": "[N18Q]", "protein stability index": 1.97}, {"variant": "FPNRTDQQCQYRWLRVLGPDLVKG", "note": "[N18G]", "protein stability index": 1.6}, {"variant": "FPNRTDQQCQYRWLRVLRPDLVKG", "note": "[N18R]", "protein stability index": 3.02}, {"variant": "FPNRTDQQCRYRWLRVLNPDLVKG", "note": "[Q10R]", "protein stability index": 1.52}, {"variant": "FPNRTDQQCWYRWLRVLNPDLVKG", "note": "[Q10W]", "protein stability index": 2.4}, {"variant": "FPNRTDQQCYYRWLRVLNPDLVKG", "note": "[Q10Y]", "protein stability index": 1.79}, {"variant": "FPNRTDQQCVYRWLRVLNPDLVKG", "note": "[Q10V]", "protein stability index": 1.81}, {"variant": "FPNRTDQQCTYRWLRVLNPDLVKG", "note": "[Q10T]", "protein stability index": 1.93}, {"variant": "FPNRTDQQCSYRWLRVLNPDLVKG", "note": "[Q10S]", "protein stability index": 2.48}, {"variant": "FPNRTDQQCQYRWLMVLNPDLVKG", "note": "[R15M]", "protein stability index": 1}, {"variant": "FPNRTDQQCQYRWLDVLNPDLVKG", "note": "[R15D]", "protein stability index": 2.48}, {"variant": "FPNRTDQQCQYRWLSVLNPDLVKG", "note": "[R15S]", "protein stability index": 2}, {"variant": "FPNRTDQQCQYRWLGVLNPDLVKG", "note": "[R15G]", "protein stability index": 2.18}, {"variant": "FPNRTDQQCQYRWLWVLNPDLVKG", "note": "[R15W]", "protein stability index": 2.96}, {"variant": "FPNRTDQQCQYRWLQVLNPDLVKG", "note": "[R15Q]", "protein stability index": 2.15}, {"variant": "FPNRTDQQCQYRWLEVLNPDLVKG", "note": "[R15E]", "protein stability index": 2.44}, {"variant": "FPNRTDQQCQYRWLVVLNPDLVKG", "note": "[R15V]", "protein stability index": 2.2}, {"variant": "FPNRTDQQCQYRWLLVLNPDLVKG", "note": "[R15L]", "protein stability index": 1.98}, {"variant": "FPNRTDQQCQYRWLCVLNPDLVKG", "note": "[R15C]", "protein stability index": 2.19}, {"variant": "FPNRTDQQCQYRWLNVLNPDLVKG", "note": "[R15N]", "protein stability index": 1.52}, {"variant": "FPNRTDQQCQYRWLHVLNPDLVKG", "note": "[R15H]", "protein stability index": 2.31}, {"variant": "FPNRTDQQCQYRWLPVLNPDLVKG", "note": "[R15P]", "protein stability index": 1.92}, {"variant": "FPNRTDQQCQYRWLTVLNPDLVKG", "note": "[R15T]", "protein stability index": 1.45}, {"variant": "FPNRTDQQCQYRWLIVLNPDLVKG", "note": "[R15I]", "protein stability index": 2.25}, {"variant": "FPNRTDQQCQYRWLAVLNPDLVKG", "note": "[R15A]", "protein stability index": 1.45}, {"variant": "FPNRTDQQCQYRWLYVLNPDLVKG", "note": "[R15Y]", "protein stability index": 2.14}, {"variant": "FPNRTDQQCQYRWLFVLNPDLVKG", "note": "[R15F]", "protein stability index": 2.36}, {"variant": "FPNRTDQQCQYRWLKVLNPDLVKG", "note": "[R15K]", "protein stability index": 1.31}]}]}
